The source of these data is article PMC3084267, “Antibody Engineering Using Phage Display with a Coiled-Coil Heterodimeric Fv Antibody Fragment” (PLoS ONE, 2011).

For orientation: Kd means a measure of binding affinity in units of concentration.

Positions count from the first letter of the chain named. Names and notes keep the numbering of the source.

First the molecules themselves.
B1: X96 scFv (VH-CDR3 mutations of X65 in the X72 framework) (scFv, V domains shown)
VH: EVQLVQSGGGVVQPGGSLRLSCAASGYTFTNYGMNWVRQAPGKGLEWVGWINTYTGEPTYAADFKRRFTFSLDTSKSTAYLQMNSLRAEDTAVYYCAKYPYYYGRSHWYFDVWGQGTLVTVSS
VL: DIQMTQSPSSLSASVGDRVTITCSASQDISNYLNWYQQKPGKAPKVLIYFTSSLHSGVPSRFSGSGSGTDFTLTISSLQPEDFATYYCQQYSTVPWTFGQGTKVEIK
notes: as the VH of m7 (X72 framework) with the VH-CDR3 changes of X65; scFv linker; VL as in m7; likely as the VL of m4; source: Pichia pastoris X33 (pPIC6 alpha), culture supernatant, purified (Ni-NTA)
B2: X97 scFv (VH-CDR3 mutations of X65 in the X76 framework) (scFv, V domains shown)
VH: B1 VH with V37I, F68V, M83L
VL: B1 VL
notes: as the VH of m8 (X76 framework) with the VH-CDR3 changes of X65; scFv linker; VL as in m8; likely as the VL of m4; source: Pichia pastoris X33 (pPIC6 alpha), culture supernatant, purified (Ni-NTA)
B3: X76 scFv (humanization lead) (scFv, V domains shown)
VH: B1 VH with V37I, F68V, M83L, Y101H, R105S
VL: B1 VL
notes: as the VH of m4 (WT) with the stated framework changes (Kabat numbering); scFv linker; VL paired with the VH humanization library; likely as the VL of m4; Selected as ccFv on phage, converted to scFv; source: Pichia pastoris X33 (pPIC6 alpha), culture supernatant, purified (Ni-NTA)
B4: X65 scFv (VH-CDR3 variant H97Y, S100aR) (scFv, V domains shown)
VH: B1 VH with Q6E, V11L
VL: B1 VL
notes: as the VH of m4 (WT framework) with the stated VH-CDR3 changes; scFv linker; Converted to scFv; source: Pichia pastoris X33 (pPIC6 alpha), culture supernatant, purified (Ni-NTA)
B5: X63 scFv (VH-CDR3 variant H97Y, S100aT) (scFv, V domains shown)
VH: B1 VH with Q6E, V11L, R105T
VL: B1 VL
notes: as the VH of m4 (WT framework) with the stated VH-CDR3 changes; scFv linker; Selected as ccFv on phage, converted to scFv; source: Pichia pastoris X33 (pPIC6 alpha), culture supernatant, purified (Ni-NTA)
B6: X64 scFv (VH-CDR3 variant S100aR) (scFv, V domains shown)
VH: B1 VH with Q6E, V11L, Y101H
VL: B1 VL
notes: as the VH of m4 (WT framework) with the stated VH-CDR3 change; scFv linker; Selected as ccFv on phage, converted to scFv; source: Pichia pastoris X33 (pPIC6 alpha), culture supernatant, purified (Ni-NTA)
B7: X78 scFv (humanization lead) (scFv, V domains shown)
VH: B1 VH with S17T, S21T, F68V, Y101H, R105S
VL: B1 VL
notes: as for B3

In one assay the target is T1, recombinant human VEGF (R&D Systems, 293-VE/CF) (Homo sapiens, UniProt P15692-4).
T1 construct: recombinant human VEGF, R&D Systems 293-VE/CF; also called VEGF antigen; source: bought: R&D Systems (293-VE/CF)
T1 sequence (P15692 whole entry): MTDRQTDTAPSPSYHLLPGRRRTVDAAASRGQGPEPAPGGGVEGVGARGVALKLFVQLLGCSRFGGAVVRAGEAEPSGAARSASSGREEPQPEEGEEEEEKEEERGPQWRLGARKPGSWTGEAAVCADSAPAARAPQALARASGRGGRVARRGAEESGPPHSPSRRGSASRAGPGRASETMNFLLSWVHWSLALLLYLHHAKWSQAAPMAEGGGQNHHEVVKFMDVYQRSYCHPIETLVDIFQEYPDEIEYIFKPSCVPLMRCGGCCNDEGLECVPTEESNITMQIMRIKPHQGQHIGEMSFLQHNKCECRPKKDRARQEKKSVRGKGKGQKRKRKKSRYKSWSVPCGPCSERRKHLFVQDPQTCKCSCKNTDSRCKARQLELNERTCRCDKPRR
In words: SPR; Biacore, 35°C; VEGF amine-coupled to a CM5 chip (about 300 RU); monomeric scFv (after Superdex 75) in PBS at 10 to 160 nM; global fit to 1:1 Langmuir model. Particulars: both partners purified.
In the case of B1, the Kd came out at 0.11 nM.

Consider B2, for which the dissociation constant (Kd) was found to be 0.12 nM.

The next assay concerns the target T1, recombinant human VEGF (R&D Systems, …). In words: SPR; Biacore, 25°C; VEGF amine-coupled to a CM5 chip (about 300 RU); monomeric scFv (after Superdex 75) in PBS at 10, 20, 40, 80, 160 nM, 30 µl/min, 5 min association, 10 min dissociation; global fit to 1:1 Langmuir model. The note with it: both partners purified. A general note: In SPR one partner is held on a chip, and binding of the other changes the refractive index at the surface.
With B3, the Kd was 3.1 nM. On to B4, for which the Kd came to 1.5 nM. Consider B5, for which the dissociation constant Kd turned out to be 2.2 nM. For B6, the equilibrium dissociation constant (Kd) came to 5.4 nM. In the case of B7, the dissociation constant Kd is 5.9 nM.
